Experimental data reported in patent publication US20240018237A1 (SICHUAN KELUN BIOTECH BIOPHARMACEUTICAL, published 2024).
Residue numbers refer to the chain shown, from its start.

B1: 19F6-Hu35V5 (antibody, human IgG1, kappa, V domains shown)
VH: QVQLQESGPGLVKPSQTLSLTCTVSGYSITSDYAWNWIRQFPGKGLEWIGYISYSGSIRYNPSLKSRVTISRDTSKNQFSLKLSSVTAADTAVYYCARGEITYYFDYWGQGTLVTVSS
VL: ETTLTQSPAFMSATPGDKVTISCKASTDIDDDMNWYQQKPGKPPKLIISEGNTLRPGIPPRFSSSGYGTDFTFTINNIKSEDAATYYCLQSNDLPLTFGQGTKLEIKR
notes: humanized, human IgG1 / kappa
B2: 19F6-Hu15 (antibody, human IgG1, kappa, V domains shown)
VH: B1 VH with Q16E, S25T, F41P, I49M, N61K, S66D, V68I
VL: B1 VL with K42E, K79E, T85D
notes: humanized, human IgG1 / kappa
B3: 19F6-Hu25 (antibody, human IgG1, kappa, V domains shown)
VH: B1 VH with Q16E, F41P, I49M, S66D, V68I
VL: B1 VL with K42E, K79E, T85D
notes: humanized, human IgG1 / kappa
B4: 3D8-HuC84 (antibody, human IgG1, kappa, V domains shown)
VH: EVQLVESGGGLVQPGGSLRLSCAASGFTFSSYAMSWVRQAPEKRLEWVSSISSGGSTYYPDSVKGRFTISRDNSKNTLYLQMNSLRAEDTAVYYCARVNYYGYGDYAMDYWGQGTLVTVSS
VL: DIQMTQSPSSLSASVGDRVTITCQASQDISNYLTWFQQKPGKSPKTLIHRANRLVTGVPSRFSGSGSGTDFTFTISSLQPEDIATYYCLQYDEFPYTFGGGTKVEIKR
notes: humanized, human IgG1 / kappa
B5: 3D8-HuC94 (antibody, human IgG1, kappa, V domains shown)
VH: B4 VH with S53N
VL: B4 VL
notes: humanized, human IgG1 / kappa
B6: 38F8-Hu27 (antibody, human IgG1, kappa, V domains shown)
VH: EVQLVESGGGLVQPGGSLRLSCAASGFTFSNYAMSWVRQAPGKGLEWVASISSGGPTYYPDSVKGRFTVSRDNSKNTLYLQMNSLRAEDTAVYYCARGYRYDVNWYFDVWGAGTMVTVSS
VL: B4 VL with F71Y, T85I
notes: humanized, human IgG1 / kappa
B7: 38F8-Hu14 (antibody, human IgG1, kappa, V domains shown)
VH: B6 VH with A23T, P60A, K75R, A112R, M115L
VL: B4 VL
notes: humanized, human IgG1 / kappa
B8: 38F8-Hu16 (antibody, human IgG1, kappa, V domains shown)
VH: B6 VH with A23T, P60A, K75R, A112R, M115L
VL: B4 VL with S30N, N31S
notes: humanized, human IgG1 / kappa
B9: 38F8-Hu17 (antibody, human IgG1, kappa, V domains shown)
VH: B6 VH with A23T, P60A, K75R, A112R, M115L
VL: B4 VL with F71Y, T85I
notes: humanized, human IgG1 / kappa
B10: 38F8-Hu18 (antibody, human IgG1, kappa, V domains shown)
VH: B6 VH with A23T, P60A, K75R, A112R, M115L
VL: B4 VL with S30N, N31S, F71Y, T85I
notes: humanized, human IgG1 / kappa
B11: 38F8-Hu24 (antibody, human IgG1, kappa, V domains shown)
VH: B6 VH
VL: B4 VL
notes: humanized, human IgG1 / kappa
B12: 38F8-Hu26 (antibody, human IgG1, kappa, V domains shown)
VH: B6 VH
VL: B4 VL with S30N, N31S
notes: humanized, human IgG1 / kappa
B13: 38F8-Hu28 (antibody, human IgG1, kappa, V domains shown)
VH: B6 VH
VL: B4 VL with S30N, N31S, F71Y, T85I
notes: humanized, human IgG1 / kappa
B14: 38F8-Hu34 (antibody, human IgG1, kappa, V domains shown)
VH: B6 VH with E1Q, Q13K, P60A, V69I, S74A, T77S
VL: B4 VL
notes: humanized, human IgG1 / kappa
B15: 38F8-Hu36 (antibody, human IgG1, kappa, V domains shown)
VH: B6 VH with E1Q, Q13K, P60A, V69I, S74A, T77S
VL: B4 VL with S30N, N31S
notes: humanized, human IgG1 / kappa
B16: 38F8-Hu37 (antibody, human IgG1, kappa, V domains shown)
VH: B6 VH with E1Q, Q13K, P60A, V69I, S74A, T77S
VL: B4 VL with F71Y, T85I
notes: humanized, human IgG1 / kappa
B17: 38F8-Hu38 (antibody, human IgG1, kappa, V domains shown)
VH: B6 VH with E1Q, Q13K, P60A, V69I, S74A, T77S
VL: B4 VL with S30N, N31S, F71Y, T85I
notes: humanized, human IgG1 / kappa
B18: 38F8-Hu54 (antibody, human IgG1, kappa, V domains shown)
VH: B6 VH with G42E, G44R
VL: B4 VL
notes: humanized, human IgG1 / kappa
B19: 38F8-Hu56 (antibody, human IgG1, kappa, V domains shown)
VH: B6 VH with G42E, G44R
VL: B4 VL with S30N, N31S
notes: humanized, human IgG1 / kappa
B20: 38F8-Hu58 (antibody, human IgG1, kappa, V domains shown)
VH: B6 VH with G42E, G44R
VL: B4 VL with S30N, N31S, F71Y, T85I
notes: humanized, human IgG1 / kappa
B21: 38F8-Hu64 (antibody, human IgG1, kappa, V domains shown)
VH: B6 VH with E1Q, Q13K, G42E, G44R, V69I, S74A, T77S
VL: B4 VL
notes: humanized, human IgG1 / kappa
B22: 38F8-Hu66 (antibody, human IgG1, kappa, V domains shown)
VH: B6 VH with E1Q, Q13K, G42E, G44R, V69I, S74A, T77S
VL: B4 VL with S30N, N31S
notes: humanized, human IgG1 / kappa
B23: 38F8-Hu67 (antibody, human IgG1, kappa, V domains shown)
VH: B6 VH with E1Q, Q13K, G42E, G44R, V69I, S74A, T77S
VL: B4 VL with F71Y, T85I
notes: humanized, human IgG1 / kappa
B24: 38F8-Hu68 (antibody, human IgG1, kappa, V domains shown)
VH: B6 VH with E1Q, Q13K, G42E, G44R, V69I, S74A, T77S
VL: B4 VL with S30N, N31S, F71Y, T85I
notes: humanized, human IgG1 / kappa

The binders below were run against T1, human ROR1 (full-length, on the cell surface) (human, UniProt Q01973 30-937) (assay: flow cytometry, Jeko-1 cells).
T1 construct: whole, on cells; the tumour cell lines carry their own ROR1; also called Ba/F3-ROR1 cells; Jeko-1
T1 sequence (Q01973 30-937): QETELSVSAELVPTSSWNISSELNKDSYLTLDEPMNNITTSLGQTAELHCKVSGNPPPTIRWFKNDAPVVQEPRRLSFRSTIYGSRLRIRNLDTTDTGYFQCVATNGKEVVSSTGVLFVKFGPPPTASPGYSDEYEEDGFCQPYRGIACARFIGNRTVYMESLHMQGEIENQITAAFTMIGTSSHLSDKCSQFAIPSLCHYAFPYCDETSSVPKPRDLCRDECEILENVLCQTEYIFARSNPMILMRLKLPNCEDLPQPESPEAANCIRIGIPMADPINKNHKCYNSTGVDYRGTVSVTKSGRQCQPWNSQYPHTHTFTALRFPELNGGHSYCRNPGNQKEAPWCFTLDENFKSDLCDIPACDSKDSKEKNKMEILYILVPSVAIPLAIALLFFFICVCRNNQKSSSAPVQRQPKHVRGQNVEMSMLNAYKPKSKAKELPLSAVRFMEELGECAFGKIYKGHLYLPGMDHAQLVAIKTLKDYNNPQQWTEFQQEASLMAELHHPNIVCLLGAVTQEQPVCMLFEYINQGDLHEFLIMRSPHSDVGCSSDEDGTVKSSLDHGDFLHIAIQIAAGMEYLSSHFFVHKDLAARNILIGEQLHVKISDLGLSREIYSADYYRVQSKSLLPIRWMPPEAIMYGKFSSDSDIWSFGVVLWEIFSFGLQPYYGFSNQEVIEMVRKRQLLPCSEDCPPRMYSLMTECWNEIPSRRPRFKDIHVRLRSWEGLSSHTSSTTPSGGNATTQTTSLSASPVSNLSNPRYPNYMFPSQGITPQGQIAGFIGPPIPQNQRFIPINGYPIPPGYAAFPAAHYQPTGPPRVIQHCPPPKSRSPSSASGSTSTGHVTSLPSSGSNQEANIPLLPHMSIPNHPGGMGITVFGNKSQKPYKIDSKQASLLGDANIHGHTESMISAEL
Experimental: (§1) The affinities of the anti-human ROR1 humanized antibodies to Ba/F3-ROR1, Jeko-1, HT-29 and A549 cells were detected by flow cytometry. The specific experimental steps were as follows: the BaBF3-ROR1, Jeko-1, HT-29 and A549 cells were incubated with the purified humanized antibodies of different concentration gradients on ice for 30 minutes, and the anti-ROR1 antibody UC961 with human IgG1 and the anti-TNP antibody were used as positive and negative controls, respectively.

Binder	EC50
B1	0.13 nM
B2	0.21 nM
B3	0.19 nM
B4	0.06 nM
B5	0.06 nM
B6	0.07 nM
B7	0.08 nM
B8	0.08 nM
B9	0.07 nM
B10	0.11 nM
B11	0.05 nM
B12	0.09 nM
B13	0.12 nM
B14	0.06 nM
B15	0.09 nM
B16	0.1 nM
B17	0.13 nM
B18	0.09 nM
B19	0.1 nM
B20	0.09 nM
B21	0.09 nM
B22	0.11 nM
B23	0.1 nM
B24	0.11 nM

What follows are binders tested against T1, human ROR1 (full-length, on the cell …) (assay: flow cytometry, Ba/F3-ROR1 cells).

Binder	EC50
B1	0.17 nM
B2	0.33 nM
B3	0.61 nM

What follows are binders tested against T1, human ROR1 (full-length, on the cell …) (assay: flow cytometry, HT-29 cells).
Experimental: as §1

Binder	EC50
B1	0.17 nM
B2	0.07 nM
B3	0.08 nM
B4	1.3 nM
B5	0.74 nM
B6	0.25 nM
B7	0.24 nM
B8	0.31 nM
B9	0.29 nM
B10	0.35 nM
B11	0.24 nM
B12	0.33 nM
B13	0.24 nM
B14	0.29 nM
B15	0.37 nM
B16	0.44 nM
B17	0.59 nM
B18	0.49 nM
B19	0.42 nM
B20	0.43 nM
B21	0.42 nM
B22	0.44 nM
B23	0.61 nM
B24	0.55 nM

Target: T1, human ROR1 (full-length, on the cell …)
Experiment: flow cytometry, Ba/F3-ROR1 cells
Remark: another data set of the same source
Experimental: as §1

Binder	EC50
B4	0.19 nM
B5	0.22 nM
B6	0.99 nM
B7	0.84 nM
B8	0.94 nM
B9	1.48 nM
B10	0.82 nM
B11	0.98 nM
B12	0.77 nM
B13	1.32 nM
B14	1.23 nM
B15	1.16 nM
B16	2.35 nM
B17	1.43 nM
B18	1.57 nM
B19	1.09 nM
B20	1.45 nM
B21	1.2 nM
B22	0.93 nM
B23	0.84 nM
B24	2.19 nM

Each binder was assayed against T1, human ROR1 (full-length, on the cell …) (assay: flow cytometry, A549 cells).
Experimental: as §1

Binder	EC50
B1	0.16 nM
B2	0.09 nM
B3	0.13 nM
B4	0.85 nM
B5	1.38 nM
B6	0.27 nM
B7	0.34 nM
B8	0.22 nM
B9	0.21 nM
B10	0.28 nM
B11	0.21 nM
B12	0.29 nM
B13	0.34 nM
B14	0.19 nM
B15	0.3 nM
B16	0.31 nM
B17	0.38 nM
B18	0.46 nM
B19	0.32 nM
B20	0.32 nM
B21	0.31 nM
B22	0.35 nM
B23	0.4 nM
B24	0.54 nM
